Changes are numbered by the printed parent chain.
B1: 21G2 (antibody, human IgG1, kappa, V domains shown)
VH: QSVEESGGRLVTPGTPLTLTCTVSGFSLSNYGVSWVRQAPGKGLEWIGYILTSGGTYYANWAQGRFTISKTSTTVDLKITSPTTEDTATYFCGRPKDSDSSAFVSLWGPGTLVTVSS
VL: DVVMTQTPASVSEPVGGTVTINCQASESIYSNLAWYQQKPGQPPKLLIYKASTLASGVSSRFKGSGSGTEFTLTISDLESADAATYYCQANHMIVIYGNGFGGGTEVVVKR
notes: Rabbit-human chimeric anti-CD38: rabbit VH and VL on human IgG1 and kappa constant regions
B2: 23B3 (antibody, human IgG1, kappa, V domains shown)
VH: QSVEESGGRLVTPGTPLTLTCTVSGFSLSNYDMTWVRQAPGRGLEWIGVISSGDNTNYARWAKGRFTISKTSSTTVDLKITSPTTEDTATYFCARILYNKGRYYFTFWGPGTLVTVSS
VL: AQVLTQTPSSVSAAVGGTVTINCQSSQSIANSDELAWYQQKPGQPPKLLIYDASTLAPGVPSRFSGSGSGTQFTLTISGVQSDDAATYYCQGTVYDSGWYAAFGGGTEVVVKR
notes: as for B1
B3: 25F12 (antibody, human IgG1, kappa, V domains shown)
VH: RSLEESGGRLVTPGTPLTLTCTTSGFSLSSYDMSWVRQAPGKGLEWIGYITYGGNIYYATWAKGRFTTSKTSTTVDLKITSPTTEDTATYFCARTLYTGGRYYFSLWGPGTLVTVSS
VL: B2 VL with A14V, D33N, L35V, P42L, P58S, T76I, S97N, G98V
notes: as for B1
B4: 17E9 (antibody, human IgG1, kappa, V domains shown)
VH: QSVEESGGRLVTPGTPLTLTCTASGFSLSRYYVTWVRQAPGKGLEWIGIIYISGTTYYATWAKGRFTISKSATTVDLRIASPTTEDTATYFCAAAWPVGTYVLPLWGPGTLVTVSS
VL: AAVLTQTPSPVSAAVGGTVTIKCQSSQSVVNANNLSWYQQKPGQPPKLLIYLASTLASGVPSRFSGSGSGTQFTLTISSVQSDDAATYYCLGVYDDDGDNAFGGGTEVVVKR
notes: as for B1
B5: 21H9 (antibody, human IgG1, kappa, V domains shown)
VH: QSLEESGGDLVKPGASLTLTCTASGFSATTYYYYMCWVRQAPGKGLEWIACTYTGDGATYYATWAKGRFTISKTSSTTVTLQMTSLTAADTATYFCARSADNSIYYGYFNLWGPGTLVTVSS
VL: AFELTQTPFSVSEPVGGTVTINCQASENIYSSLAWYQQKPGQPPKLLIYRASTLASGVPSRFSGSGSGTEFTLTISGVQSDDAATYYCQTYYGSTSTGFTFGGGTEVVVKR
notes: as for B1
B6: 1E2 (antibody, human IgG1, kappa, V domains shown)
VH: QSVEESGGRLVTPGTPLTLTCTVSGIDLNSYAMGWVRQAPGKGLKYIGIMTSGGNIYYANWAKGRFTISKTSTTVDLRITSPTTEDTATYFCAREREFYGGGTSGSRLDLWGQGTLVTVSS
VL: AYDMTQTPASVEAAVGGTVTIKCQASQSIYNFLNWYQQKPGQPPKLLIYYASTLAFGVPSRFKGSGSGTEYTLTISGVESADAATYYCQQGWNSGILDNSFGGGTEVVVKR
notes: as for B1
B7: 23D1 (antibody, human IgG1, kappa, V domains shown)
VH: QELVESGGGLFQPGGSLALTCKASGFSLSNIYVMCWVRQAPGKGLEWIACIGTGSGDTDYATWAKGRFTISKTSSTTVTLQMTSLTAADTATYFCARDPGAGTWNLWGPGTLVTVSS
VL: DIVMTQTPSSVEAAVGGTVTIKCQASQTIGSRLAWYQQKPGQPPKLLIYSASTLASGVSSRFKGSGSGTQFTLTISDLDSADAATYYCQSYYYTSTSYPNAFGGGTEVVVKR
notes: as for B1
B8: 25E4 (antibody, human IgG1, kappa, V domains shown)
VH: QSLEESGGRLVTPGTPLTLTCTVSGIDLSIYTMAWVRQAPGKGLEYIGIISGYGTTYYATWAKGRFIVSKTSTTVDLKITSPTTEDTATYFCVRTTVQSTDLWGPGTLVTVSS
VL: DIVMTQTPASVEAAVGGTVTINCQASQNIYSNLAWYQQKPGQRPKLLIYKASTLASGVSSRFKGSGSGTEFTLTISDLASADAATYYCQSYYGATSSSFGYGFGGGTEVVVKR
notes: as for B1
B9: 27F6 (antibody, human IgG1, kappa, V domains shown)
VH: QSLEESGGGLVKPGASLTLTCKASGFSFSSGCDMCWVRQAPGKGLEWISCIYTGSGSTYYANWAKGRFTISRTSSTTVTLQMTSLTAADTATYFCAGDSDYLGLWGPGTLVTVSS
VL: DIVMTQTPSSVEAAVGGTVTIKCQASQNIGNYLAWYQQKPGQPPKVLIYRASTLASGVPSRFKGSGSGTHFTLTISDLESADAATYYCQSYYYTTDDNYRSWAFGGGTEVVVKR
notes: as for B1
B10: 17F7 (antibody, human IgG1, kappa, V domains shown)
VH: QSVEESGGRLVTPGTPLTLTCTASGFSLSSYYMSWVRQAPGKGLEWIGFISKTAITYYASWARGRFTISKTSTAVDLKITSPTTEDTATYFCARVDAYSAGDLWGPGTLVTVSS
VL: AQVLTQTPSSVSAAVGGTVTINCQASQSVYSDNRLSWFQQKSGQPPKLLIYSTSSLASGVPSRFSGSGSGTQFTLTISGVQSDDAASYYCQGEFICTSADCFVFGGGTEVVVKR
notes: as for B1
B11: 18E4 (antibody, human IgG1, kappa, V domains shown)
VH: QSLEESGGDLVKPGASLTLTCTASGFSFNNYWICWIRQAPGKGLEWVACIYSPSGDIKYYANWAKGRFTVSKTSSTTVTLQMTSLTGADTATYFCARELSGSSYEGYFESWGPGTLVTVSS
VL: AQVLTQTPSSVSAAVGGTVTINCQCSQSVYGHNWLAWYQHKPGQPPKLLMYRASNLASGVPSRFKGSGSGSQFTLTIGEVQSDDAATYYCQGYYNGGSYAFGGGTEVVVRR
notes: as for B1
B12: 25C3 (antibody, human IgG1, kappa, V domains shown)
VH: QEQLEESGGDLVKPGASLTLTCKASGFSFSSAYDMCWVRQAPGKGLEWVACLYTVSSDSIYYASWAKGRFTISRTSSTTVTLQMTSLTAADTATYFCARDGDYFALWGPGTLVTVSS
VL: DIVMTHTPASVEAAVGGTVTIKCQASQNIGGYLSWYQQKPGQRPKLLIYRASTLASGVPSRFKGSGSGTQFTLTISDLESADAATYYCQTYYYSGSSRYWAFGGGTEVVVKR
notes: as for B1

The binders below were run against T1, recombinant human CD38 (human, UniProt P28907 43-300, limits assumed) (assay: ELISA: plate coated with 1 ug/ml recombinant human CD38 ECD, serially diluted antibody, OD450).
Description: (§1) The plate was coated overnight at 4° C. with 1 μg/ml recombinant CD38 or ICAM1. After washing 3 times, the plate was blocked with 300 μl 1% BSA in PBST at 37° C. for 1 hour. Serially diluted antibodies were added and incubated at 37° C. for 1 hour. The plate was then washed 4 times with PBST and incubated with 1:5000 diluted 2nd antibody (Sigma, Cat #A0293) at 37° C. for 1 hour.

Binder	EC50 (read off the curve)
B1	~60 pM
B2	~60 pM
B3	~60 pM
B4	~60 pM
B5	~60 pM
B6	~60 pM
B7	~60 pM
B8	~60 pM
B9	~60 pM
B10	~60 pM
B11	~60 pM
B12	~60 pM

Each binder was assayed against T2, cynomolgus CD38 ECD (cynomolgus, UniProt Q5VAN0 44-301, biotinylated on the AviTag during preparation) (assay: ELISA: plate coated with 1 ug/ml recombinant cynomolgus CD38 ECD, serially diluted antibody, OD450).
T2 construct: also called Cyno-CD38; Avi-Cyno CD38 ECD
Description: as §1

Binder	EC50 (read off the curve)
B1	~60 pM
B2	~60 pM
B3	~60 pM
B4	~60 pM
B5	~60 pM
B6	~60 pM
B7	~60 pM
B8	~60 pM
B9	~60 pM
B10	~60 pM
B11	~60 pM
B12	~60 pM

What follows are binders tested against T3, CD38 on the surface of Daudi cells (human, UniProt P28907 1-300) (assay: flow cytometry, Daudi cells;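 note: purified antibodies incubated with Daudi cells for 1 h at 4 °C, bound antibody detected by fluorescent secondary antibody and read by flow cytometry as MFI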).
T3 construct: whole, on cells
Description: Harvested cells were centrifuged at 2000 rpm for 5 min and resuspended with 10-15 ml ice-cold culture medium. Cells were counted and then 3×10⁶ cells were resuspended per mL of blocking buffer (PBS plus 2% FBS). 100 μl of the cell suspension was dispensed into each well of a 96-well plate and incubated at room temperature for 10-20 min. […] While incubating, purified antibodies were diluted to the desired dilution with blocking buffer. After a 10-20 minutes incubation, cells were centrifuged for 5 min at 2000 rmp in a refrigerated centrifuge. Blocking buffer was aspirated, and cells were resuspended in 100 μl/well diluted antibodies and incubated for 1 hour at 4° C. The cells were then washed 3 times with PBS plus 2% FBS. After the final wash, the cells were resuspended in 100 μl 1:500 diluted secondary antibody (Invitrogen, Cat #: A10631) and incubated for 1 hour at 4° C. in the dark. The cells were then washed 3 times with 200 μl PBS by centrifuging at 2000 rpm for 5 min. After the last wash, the cells were resuspended in 300 μl cold PBS and analyzed on a FACSVerse™ (BD Biosciences) flow cytometer.

Binder	EC50	Max Binding MFI
B1	1130 pM	2150 MFI
B2	325 pM	1330 MFI
B3	263 pM	1030 MFI
B4	263 pM	2260 MFI
B5	1200 pM	1930 MFI
B6	497 pM	2130 MFI
B7	704 pM	1000 MFI
B8	503 pM	859 MFI
B9	298 pM	1200 MFI
B10	432 pM	1530 MFI
B11	900 pM	1580 MFI
B12	347 pM	1180 MFI

What follows are binders tested against T2, cynomolgus CD38 ECD (assay: SPR (Biacore 8K), antibody captured, antigen injected;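 note: antibodies held on a CM5 chip through anti-human IgG Fc, antigen in 3-fold serial dilutions, 1 min association then 10 min dissociation at 25 °C, 1:1 Langmuir global fit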).
Description: (§2) The binding kinetics of the anti-CD38 and anti-ICAM1 antibodies were evaluated on a Biacore 8K instrument (GE Healthcare). Biacore Series S CM5 sensor chips were immobilized with monoclonal mouse anti-human IgG (Fc) antibody (human antibody capture kit from GE Healthcare). Antibodies were captured on each flow cell. Serial 3-fold dilutions of each antigen were injected at a flow rate of 30 μl/min. Each sample was analyzed with 1 min association and 10 min dissociation at room temperature (25° C.). After each injection, the chip was regenerated using 3M MgCl₂. A 1:1 Langmuir model of simultaneous fitting of kₒₙ and koff was used for kinetics analysis.

Binder	Kd	koff	kon
B1	1710 pM	0.000432 s⁻¹	253000 M⁻¹ s⁻¹
B2	40 pM	9.46e-05 s⁻¹	2.43e+06 M⁻¹ s⁻¹
B3	180 pM	0.000185 s⁻¹	1.04e+06 M⁻¹ s⁻¹
B4	60 pM	0.000166 s⁻¹	2.64e+06 M⁻¹ s⁻¹
B5	760 pM	0.00014 s⁻¹	184000 M⁻¹ s⁻¹
B6	68100 pM	0.0124 s⁻¹	182000 M⁻¹ s⁻¹
B7	550 pM	0.000294 s⁻¹	536000 M⁻¹ s⁻¹
B8	140 pM	0.000175 s⁻¹	1.23e+06 M⁻¹ s⁻¹
B9	280 pM	0.00029 s⁻¹	1.02e+06 M⁻¹ s⁻¹
B10	2320 pM	0.00382 s⁻¹	1.65e+06 M⁻¹ s⁻¹
B11	420 pM	0.000236 s⁻¹	563000 M⁻¹ s⁻¹
B12	150 pM	0.000187 s⁻¹	1.23e+06 M⁻¹ s⁻¹

What follows are binders tested against T1, recombinant human CD38 in the same assay as above.
Description: as §2

Binder	Kd	koff	kon
B1	190 pM	3.1e-05 s⁻¹	167000 M⁻¹ s⁻¹
B2	0.029 pM	2.77e-08 s⁻¹	970000 M⁻¹ s⁻¹
B3	10 pM	2.24e-05 s⁻¹	1.84e+06 M⁻¹ s⁻¹
B4	150 pM	0.000142 s⁻¹	923000 M⁻¹ s⁻¹
B5	4 pM	5.99e-07 s⁻¹	166000 M⁻¹ s⁻¹
B6	1620 pM	0.000388 s⁻¹	240000 M⁻¹ s⁻¹
B7	670 pM	0.000125 s⁻¹	187000 M⁻¹ s⁻¹
B8	70 pM	2.59e-05 s⁻¹	380000 M⁻¹ s⁻¹
B9	310 pM	0.000117 s⁻¹	376000 M⁻¹ s⁻¹
B10	7560 pM	0.00378 s⁻¹	500000 M⁻¹ s⁻¹
B11	270 pM	8.13e-05 s⁻¹	303000 M⁻¹ s⁻¹
B12	30 pM	3.48e-05 s⁻¹	1.15e+06 M⁻¹ s⁻¹
